Reference: patent publication US20050065081A1, “Tyrosine kinase inhibitors” (priority 2002, published 2005)

Tested on: GST-Jun
Test: Abl in vitro kinase assay of immunoprecipitated Abl proteins, GST-Jun as substrate
Type: biochemical
Settings: expressed in HEK293 cells, relative to Abl M1-K531
Description: C. Abl protein was immunoprecipitated from total cell extract using anti-Abl antibodies, blotted to nitrocellulose and probed with anti-Abl and anti-phosphotyrosine antibodies (left panels). Abl immunoprecipitates were assayed for catalytic activity by in vitro kinase assay using GST-Jun as substrate.
The catalytic activity of purified Abl protein bound to protein G-Sepharose beads was determined as follows. Beads were washed three times with IP buffer, two times with IP buffer without NaCl and two times with kinase assay buffer (20 mM Tris-HCl pH 7.5, 10 mM MgCl2, 1 mM DTT). Twenty μl linase assay mix (1 μg GST-Crk121-226 (Dorey et al., 1999), 0.5 μl [γ-^32P]-ATP (Amersham), 0.1 mM ATP in kinase assay buffer) was added and the mixture was incubated at room temperature for 10 and 20 minutes. The kinase reaction was stopped by adding SDS-sample buffer and analyzed by SDS-PAGE. Quantification of the reaction was done by cutting the desired bands from gel followed by liquid scintillation counting and/or phosphoimager analysis. For the in vitro inhibition of Abl, GST or GST 1b+2 protein were bacterially expressed, purified and dialysed against kinase assay buffer. Equal quantities of purified proteins were added directly to the kinase assay mixture, samples were incubated for 2 hours at 4° C. and then assayed as above.

Molecule	Catalytic activity and tyrosine phosphorylation (in words)
Abl M1-K531: deletion mutant lacking the last exon region of c-Abl	did not lead to activation
Abl P82-K531: mutant lacking the last exon region and the N-terminal amino acids preceding the SH3 domain (protein, UniProt P00519 82-531, looked up, fragment, isoform 1B, mutant lacking the last exon region and the N-terminal amino acids preceding the SH3 domain) ITKGEKLRVLGYNHNGEWCEAQTKNGQGWVPSNYITPVNSLEKHSWYHGPVSRNAAEYLLSSGINGSFLVRESESSPGQRSISLRYEGRVYHYRINTASDGKLYVSSESRFNTLAELVHHHSTVADGLITTLHYPAPKRNKPTVYGVSPNYDKWEMERTDITMKHKLGGGQYGEVYEGVWKKYSLTVAVKTLKEDTMEVEEFLKEAAVMKEIKHPNLVQLLGVCTREPPFYIITEFMTYGNLLDYLRECNRQEVNAVVLLYMATQISSAMEYLEKKNFIHRDLAARNCLVGENHLVKVADFGLSRLMTGDTYTAHAGAKFPIKWTAPESLAYNKFSIKSDVWAFGVLLWEIATYGMSPYPGIDLSQVYELLEKDYRMERPEGCPEKVYELMRACWQWNPSDRPSFAEIHQAFETMFQESSISDEVEKELGKQGVRGAVSTLLQAPELPTK	highly active in vitro
